Data from patent US6586946B2, “System and method for detecting and identifying molecular events in a test sample using a resonant test structure” (Signature BioScience, Inc., priority 2000, dated 2003).

Assay: Resonant frequency shift of coaxial resonator coupled to protein solution versus PBS buffer (S11 return loss)
Assay type: physicochemical
Details: protein solution in PTFE tube; reference PBS pH 7.4; input test signal approximately 1 GHz, 100 KHz band
Procedure: Using the systems and methods of the present invention, several experiments were performed to detect and identify molecular events in a solution. […] The vector network analyzer used was model number HP 8714 manufactured by Agilent Technologies, Inc. (Palo Alto, Calif.) The computer is an HP Vectra computer (Hewlett Packard Company, Palo Alto, Calif.) executing a graphically user interface (LabView® platform) to control the operation of the network analyzer and to display the resulting data. The coaxial resonator 122 illustrated in FIG. 3A was used in the experiments to illuminate the reference and test samples. […] The PTFE tube 470 is used to transport the reference and test samples to the detection region of the resonant test assembly and measures 0.031″ I.D., 0.063″ O.D., wall 0.016″ in cross-section dimensions.
The proteins used for the experiment included bovine serum albumin (BSA), ribonuclease (rnase), urease, myoglobin, fibrinogen (type I-S, bovine), chicken lysozyme (egg white), and turkey lysozyme. Phosphate buffer solution (PBS, pH 7.4) was purchased from Sigma (St. Louis, Mo.) and used as the reference sample.
In the reference measurement, PBS buffer was introduced into the tube and transported to the detection region, and a S11 (return loss) measurement of the resonator was taken. In the illustrated example, the measurement was taken at 1 GHz over a 100 KHz band. From the measured S11 response, the resonant frequency fres and Q-factor of the resonator were computed and stored, as described above.
Next, each of the aforementioned protein solutions were introduced into the tube and transported to the detection region. The resonator's S11 response was measured (over the same frequency range as above) and the corresponding resonant frequency fres and Q-factor parameters derived therefrom. Subsequently, the difference in the resonant frequencies Δfres is computed. This quantity was subsequently plotted versus the resonator's measured Q-factor when electromagnetically coupled to the test sample. FIG. 6 illustrates this mapping.

chicken lysozyme
change in resonant frequency of the resonator (relative to the PBS buffer): ~6.5 KHz

fibrinogen
change in resonant frequency of the resonator (relative to the PBS buffer): approximately 1.75 KHz

urease
change in resonant frequency of the resonator (relative to the PBS buffer): ~2 KHz

myoglobin
change in resonant frequency of the resonator (relative to the PBS buffer): ~4 KHz

B1: turkey lysozyme (protein, UniProt P00703 19-147, looked up)
Lysozyme C: KVYGRCELAAAMKRLGLDNYRGYSLGNWVCAAKFESNFNTHATNRNTDGSTDYGILQINSRWWCNDGRTPGSKNLCNIPCSALLSSDITASVNCAKKIASGGNGMNAWVAWRNRCKGTDVHAWIRGCRL
notes: test protein
change in resonant frequency of the resonator (relative to the PBS buffer): ~6.75 KHz
